Patent US20140348834A1 (published 2014)

Legend:
human IL-17A [1] = biological target: T1, human IL-17A (human, UniProt Q16552 24-155); experiment: cell-based or functional assay
human IL-17A/F = human IL-17A/F (human, UniProt Q16552 24-155; Q96PD4 31-163); experiment: cell-based or functional assay
[2] = biological target: cynomolgous monkey (cyno) IL-17A (cynomolgus monkey, UniProt A0A2K5TTB0 24-155); experiment: cell-based or functional assay
rat IL-17A = biological target: T2, rat IL-17A (rat, UniProt Q61453 18-150, limits assumed); experiment: cell-based or functional assay
T2 sequence (looked up): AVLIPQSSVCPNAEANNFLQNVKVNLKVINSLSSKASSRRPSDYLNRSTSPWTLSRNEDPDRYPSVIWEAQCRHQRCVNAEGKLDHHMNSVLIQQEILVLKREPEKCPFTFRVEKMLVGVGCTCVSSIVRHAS

mouse IL-17A = biological target: T3, mouse IL-17A (mouse, UniProt Q62386 26-158, limits assumed); experiment: cell-based or functional assay
T3 sequence (looked up): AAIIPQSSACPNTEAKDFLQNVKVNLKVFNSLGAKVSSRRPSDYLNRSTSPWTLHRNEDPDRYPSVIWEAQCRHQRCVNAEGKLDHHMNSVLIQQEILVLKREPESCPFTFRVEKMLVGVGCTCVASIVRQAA

rabbit IL-17A = rabbit IL-17A (rabbit); experiment: cell-based or functional assay
human IL-17A [3] = biological target: T1, human IL-17A; experiment: ELISA, captured antibody, serially diluted biotin-IL-17 (Example 1.5.1)
Experimental: The following protocol is used to characterize the binding of IL-17 antibodies to human IL-17 by enzyme-linked immunosorbent assay (ELISA). […] 1. Coat ELISA plate with 50 μl per well of Goat anti Mouse IgG-Fc at 2 ug/ml, overnight at 4° C. […] 2. Wash plate 3×PBS/Tween. […] 3. Add 50 μl Mab diluted to 1 μg/ml in PBS/0.1% BSA to appropriate wells. Incubate 1 hr at room temperature (RT). […] 4. Wash plate 3× with PBS/Tween. […] 5. Add 50 μl of serial diluted biotin-IL17 (human IL-17, IL-17A/F, cyno IL-17) to appropriate wells. Incubate 1 hr at room temperature (RT). […] 6. Wash plate 3× with PBS/Tween. […] 7. […] Incubate 1 hr at RT. […] 8. Wash plate 3× with PBS/Tween. […] 9. […] 10. Stop reaction with 50 μl 2N H₂SO₄. […] Read absorbance at 450 nm.

T1 sequence (Q16552 24-155 limits assumed): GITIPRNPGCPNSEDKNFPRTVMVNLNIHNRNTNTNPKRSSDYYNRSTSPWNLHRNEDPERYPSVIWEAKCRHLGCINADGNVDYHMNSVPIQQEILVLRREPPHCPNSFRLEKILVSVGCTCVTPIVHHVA
Sequence of cynomolgous monkey (cyno) IL-17A (A0A2K5TTB0 entry or part of it): as the sequence (Q16552 24-155 limits assumed) above, with T3A, P8S, N34S, I77V, N78K, P104R counted along it
Sequence of human IL-17A/F (Q16552 24-155 limits assumed, chain 1 of 2): as the sequence (Q16552 24-155 limits assumed) above
Sequence of human IL-17A/F (Q96PD4 31-163 limits assumed, chain 2 of 2): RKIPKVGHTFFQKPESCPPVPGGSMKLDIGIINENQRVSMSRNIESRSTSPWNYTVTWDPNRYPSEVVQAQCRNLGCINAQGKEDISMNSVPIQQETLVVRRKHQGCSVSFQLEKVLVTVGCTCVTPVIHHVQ

B1: IL17-B6-17 (antibody, V domains shown)
VH: EVQLVQSGAEVKKPGSSVKVSCKASGGSFGGYGIGWVRQAPGQGLEWMGGITPFFGFADYAQKFQGRVTITADESTTTAYMELSGLTSDDTAVYYCARDPNEFWNGYYSTHDFDSWGQGTTVTVSS
VL: EIVLTQSPDFQSVTPKEKVTITCRASQDIGSELHWYQQKPDQPPKLLIKYASHSTSGVPSRFSGSGSGTDFTLTINGLEAEDAGTYYCHQTDSLPYTFGPGTKVDIK
notes: also called pJP249 B6.1 #17VH / pJP252 B6.1 #17Vk
Q: What does the source list for B1?
A: Potency (pM), IL-17-driven IL-6 production in HS27 cells (human IL-17A [1]): 15 pM; Potency (pM), IL-17-driven IL-6 production in HS27 cells (human IL-17A/F): 137 pM; Potency (pM), IL-17-driven IL-6 production in HS27 cells [2]: 11 pM; Potency (pM), IL-17 and TNF-induced IL-6 secretion from NIH3T3 cells (rat IL-17A): 111 pM; Potency (pM), IL-17 and TNF-induced IL-6 secretion from NIH3T3 cells (mouse IL-17A): 69 pM; Potency (pM), IL-17 and TNF-induced IL-6 secretion from NIH3T3 cells (rabbit IL-17A): 232 pM; EC50 (human IL-17A [3]): 0.13 nM
